Values quoted from earlier work as cited in publication PMC4370504.

Target: ubiquitin (Homo sapiens) (UniProt P0CG47)
Test: ITC

Chain of Pol eta UBZ (Q9Y253 625-665): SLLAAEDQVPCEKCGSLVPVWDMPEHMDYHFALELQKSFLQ

Kd: 81 µM
Substance: Pol eta UBZ (from UniProt Q9Y253)
